For data set [1] the following is noted: Matsuda et al. 1987; cited from earlier work.
Data set [2] is described as follows: Specific activity of CPC acylase to GL-7-ACA. Format: biochemical. The following applies: purified enzyme. The protocol: J. Appl. Microbiol. Biotechnol. 23: 559-564, 1995). […] After the reaction, the mixture (200 μl) of 50 mM NaOH and 20% glacial acetic acid (1:2) was added thereto to stop the reaction. 200 μl of the supernatant recovered from the reaction mixture by centrifugation was mixed with 40 μl of 0.5% (w/v) PDAB (p-dimethylaminobenzaldehyde; Sigma, USA) dissolved in a methanol and the reaction mixture was incubated at 37° C. for 10 min. After the reaction, the absorbance of reaction mixture was measured at 415 nm and quantified by comparing with a calibration curve of standard material. […] Biochem. 72: 248-254, 1976) and representing it as an active unit corresponding to 1 mg of protein. The reactivity of CPC acylase mutant to CPC was determined by the following steps of adding the same amount of protein to a reaction mixture, performing an enzyme reaction for a fixed time, measuring the amount of 7-ACA produced in the reaction mixture, and representing it as a relative value. The end-product inhibition by 7-ACA was determined by adding a protein corresponding to the same active unit to a reaction mixture, performing an enzyme reaction for a fixed time; measuring the amount of 7-ACA produced in the reaction mixture, and representing it as a relative value.
Therefore, it has been known that the Pseudomonas sp.

Data set [3] in a line: End-product inhibition by 7-ACA. The note with it: same active unit of enzyme. It is filed as biochemical. As to the method:
(§1) The enzyme activity of CPC acylase mutant to CPC was measured according to the method described by Park et al. with minor modifications as follows (Park, et al., Kor. J. Appl. Microbiol. Biotechnol. 23: 559-564, 1995). A substrate solution was prepared by dissolving CPC (purity 74.2%; CJ Corp., Korea) in 0.1 M Tris-HCl buffer solution (pH 8.0) at a concentration of 20 mg/ml and adjusting pH to 8 with 1 N NaOH. 20 μl of the CPC solution was mixed with 20 μl of the crude enzyme solution prepared above and the reaction mixture was incubated at 37° C. for 5 min. After the reaction, the mixture (200 μl) of 50 mM NaOH and 20% glacial acetic acid (1:2) was added thereto to stop the reaction. 200 μl of the supernatant recovered from the reaction mixture by centrifugation was mixed with 40 μl of 0.5% (w/v) PDAB (p-dimethylaminobenzaldehyde; Sigma, USA) dissolved in a methanol and the reaction mixture was incubated at 37° C. for 10 min. After the reaction, the absorbance of reaction mixture was measured at 415 nm and quantified by comparing with a calibration curve of standard material. […] Meanwhile, the specific activity of CPC acylase mutant for CPC was determined by measuring the amount of protein remaining in the enzyme solution according to the method described by Bradford (Bradford, M., Anal. Biochem. 72: 248-254, 1976) and representing it as an active unit corresponding to 1 mg of protein. […]

Data set [4] is described as follows: Optimal reaction temperature and pH to CPC. Format: biochemical. The note with it: purified mutant enzyme. The protocol:
Further, as a result of examining the optimal reaction temperature and pH of the wild-type CPC acylase AcyII, the optimal reaction temperature and pH to CPC were 40° C. and 9.0, respectively.

The nature of data set [5]: Reactivity to CPC (relative 7-ACA produced by the same amount of protein). Format: biochemical. The following applies: crude enzyme solution. The protocol: as §1

B1: Wild-type: Pseudomonas sp. SE83 derived wild-type CPC acylase (AcyII), α-subunit SEQ ID NO: 4 and β-subunit SEQ ID NO: 5, from pBCPC (protein)
alpha: TMAAKTDREALQAALPPLSGSLSIPGLSAPVRVQRDGWGIPHIKASGEADAYRALGFVHAQDRLFQMELTRRKALGRAAEWLGAEAAEADILVRRLGMEKVCRRDFEALGAEAKDMLRAYVAGVNAFLASGAPLPIEYGLLGAEPEPWEPWHSIAVMRRLGLLMGSVWFKLWRMLALPVVGAANALKLRYDDGGQDLLCIPPGVEAERLEADLAALRPAVDALLKAMGG
beta: SNNWAVAPGRTATGRPILAGDPHRVFEIPGMYAQHHLACDRFDMIGLTVPGVPGFPHFAHNGKVAYCVTHAFMDIHDLYLEQFAEDGRTARFGNEFEPVAWRRDRIAVRGGADREFDIVETRHGPVIAGDPLEGAALTLRSVQFAETDLSFDCLTRMPGASTVAQLYDATRGWGLIDHNLVAGDVAGSIGHLVRARVPSRPRENGWLPVPGWSGEHEWRGWIPHEAMPRVIDPPGGLIVTANNRVVADDHPDYLCTDCHPPYRAERIMERLVASPAFAVDDAAAIHADTLSPHVGLLRARLEALGIQGSLPAEELRQTLIAWDGRMDAGSQAASAYNAFRRALTRLVTARSGLEQAIAHPFAAVPPGVSPQGQVWWAVPTLLRNDDAGMLKGWSWDEALSEALSVATQNLTGRGWGEEHRPRFTHPLSAQFPAWAALLNPVSRPIGGDGDTVLANGLVPSAGPEATYGALSRYVFDVGNWDNSRWVVFHGASGHPASPHYADQNAPWSDCAMVPMLYSWDRIAAEAVTSQELVPA
modifications: Pseudomonas sp. SE83
With B1, in data set [1], the “acylase activity to CPC as compared with GL-7-ACA” value was “about 5%”. For the same molecule, the “specific activity to GL-7-ACA” value in data set [2] is on record as “about 23.1 unit/mg protein”.

B2: S12: sixfold CPC acylase mutant, α-subunit SEQ ID NO: 7 and β-subunit SEQ ID NO: 8 (protein)
alpha: TMAAKTDREALQAALPPLSGSLSIPGLSAPVRVQRDGWGIPHIKASGEADAYRALGFVHAQDRLFQMELTRRKALGRAAEWLGAEAAEADILVRRLGMEKVCRRDFEALGAEAKDMLRAYAAGVNAFLASGAPLPIEYSLLGAEPEPWEPWHSIAVMRRLGLLMGSVWFKLWRMLALPVVGAANALKLRYDDGGQDLLCIPPGVEAERLEADLAALRPAVDALLKAMGG
beta: SNNWAVAPGRTATGRPILAGDPHRVFEIPGMYAQHHLACDRFDMIGLTVPGVPGFPHNAHNGKVAYCVTHAFMDTHDLYLEQFAEDGRTARFGNEFEPVAWRRDRIAVRGGADREFDIVETRHGPVIAGDPLEGAALTLRSVQFAETDLSFDCLTRMPGASTVAQLYDATRGWGLVDHNLVAGDVAGSIGHLVRARVPSRPRENGWLPVPGWSGEHEWRGWIPHEAMPRVIDPPGGLIVTANNRVVADDHPDYLCTDCHPPYRAERIMERLVASPAFAVDDAAAIHADTLSPHVGLLRARLEALGIQGSLPAEELRQTLIAWDGRMDAGSQAASAYNAFRRALTRLVTARSGLEQAIAHPFAAVPPGVSPQGQVWWAVPTLLRNDDAGMLKGWSWDEALSEALSVATQNLTGRGWGEEHRPRFTHPLSAQFPAWAALLNPVSRPIGGDGDTVLANGLVPSAGPEATYGALCRYVFDVGNWDNSRWVVFHGASGHPASPHYADQNAPWSDCAMVPMLYSWDRIAAEAVTSQELVPA
modifications: alpha-subunit of mutatnt CPC acylase S12 protein; beta-subunit of mutatnt CPC acylase S12 protein
In the case of B2, the “end-product inhibition by 7-ACA (in words)” value in data set [3] is given as “significantly decreased as compared with that of the wild-type enzyme”. Further, the “reaction feature (e.g., optimal temperature and pH) compared with wild-type” value in data set [4] was “the same as the wild-type CPC acylase”. The “reactivity to CPC (in words)” value in data set [5] is “higher than that of #76 mutant”.

The values above are taken from patent US7592168B2, “Cephalosporin C acylase mutant and method for preparing 7-ACA using same” (Sandoz AG, priority 2003, dated 2009).
